Assay [1] addresses α6β1 integrin on Expi293F cells, α6 R157A (human, UniProt P05556 21-798, Mn2+; A cytoplasmic form assumed). As to the kind of experiment: flow cytometry on cells; Expi293F cells transiently expressing α6 (wild type or mutant) with β1, in HBS-BSA with 0.5 mM MnCl2, varying concentrations of sfGFP-tLM511, room temperature 2 h, no washing; non-transfected cells as baseline. The note with it: one partner purified.

For assay [2], the target named is α6β1 integrin on Expi293F cells, α6 D153A (human, UniProt P05556 21-798, Mn2+; A cytoplasmic form assumed). The assay is described as above. The note with it: one partner purified.
Sequence of α6β1 integrin on Expi293F cells, α6 D153A (chain, as listed by the source D153A, chain 1 of 2): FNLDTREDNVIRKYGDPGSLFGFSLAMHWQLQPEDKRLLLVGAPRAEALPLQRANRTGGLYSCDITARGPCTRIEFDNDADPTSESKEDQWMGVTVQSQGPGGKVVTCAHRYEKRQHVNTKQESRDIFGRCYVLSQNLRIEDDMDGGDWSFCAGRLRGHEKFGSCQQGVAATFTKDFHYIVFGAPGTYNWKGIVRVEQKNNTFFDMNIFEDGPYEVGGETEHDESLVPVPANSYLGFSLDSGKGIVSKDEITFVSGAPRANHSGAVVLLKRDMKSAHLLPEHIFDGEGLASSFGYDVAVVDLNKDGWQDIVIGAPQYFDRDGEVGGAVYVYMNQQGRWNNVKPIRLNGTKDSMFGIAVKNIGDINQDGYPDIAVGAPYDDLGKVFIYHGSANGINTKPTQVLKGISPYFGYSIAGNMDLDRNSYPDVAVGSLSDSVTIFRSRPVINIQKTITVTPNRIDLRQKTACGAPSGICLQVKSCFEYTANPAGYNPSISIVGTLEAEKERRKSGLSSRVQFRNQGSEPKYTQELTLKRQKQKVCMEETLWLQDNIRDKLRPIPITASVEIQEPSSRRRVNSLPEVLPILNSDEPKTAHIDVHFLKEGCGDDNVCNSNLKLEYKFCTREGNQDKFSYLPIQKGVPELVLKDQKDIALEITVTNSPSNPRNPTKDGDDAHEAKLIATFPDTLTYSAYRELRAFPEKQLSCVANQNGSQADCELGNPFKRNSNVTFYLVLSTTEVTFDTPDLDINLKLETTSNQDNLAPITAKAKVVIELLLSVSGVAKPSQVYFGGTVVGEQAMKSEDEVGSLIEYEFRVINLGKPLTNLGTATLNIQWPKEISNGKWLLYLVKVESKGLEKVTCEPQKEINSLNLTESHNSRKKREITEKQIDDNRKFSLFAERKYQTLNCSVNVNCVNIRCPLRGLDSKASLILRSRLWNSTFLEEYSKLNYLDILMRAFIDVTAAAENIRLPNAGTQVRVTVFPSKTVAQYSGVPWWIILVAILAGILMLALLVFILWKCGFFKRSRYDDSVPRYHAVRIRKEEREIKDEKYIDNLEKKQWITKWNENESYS
Sequence of α6β1 integrin on Expi293F cells, α6 D153A (P05556 21-798, chain 2 of 2): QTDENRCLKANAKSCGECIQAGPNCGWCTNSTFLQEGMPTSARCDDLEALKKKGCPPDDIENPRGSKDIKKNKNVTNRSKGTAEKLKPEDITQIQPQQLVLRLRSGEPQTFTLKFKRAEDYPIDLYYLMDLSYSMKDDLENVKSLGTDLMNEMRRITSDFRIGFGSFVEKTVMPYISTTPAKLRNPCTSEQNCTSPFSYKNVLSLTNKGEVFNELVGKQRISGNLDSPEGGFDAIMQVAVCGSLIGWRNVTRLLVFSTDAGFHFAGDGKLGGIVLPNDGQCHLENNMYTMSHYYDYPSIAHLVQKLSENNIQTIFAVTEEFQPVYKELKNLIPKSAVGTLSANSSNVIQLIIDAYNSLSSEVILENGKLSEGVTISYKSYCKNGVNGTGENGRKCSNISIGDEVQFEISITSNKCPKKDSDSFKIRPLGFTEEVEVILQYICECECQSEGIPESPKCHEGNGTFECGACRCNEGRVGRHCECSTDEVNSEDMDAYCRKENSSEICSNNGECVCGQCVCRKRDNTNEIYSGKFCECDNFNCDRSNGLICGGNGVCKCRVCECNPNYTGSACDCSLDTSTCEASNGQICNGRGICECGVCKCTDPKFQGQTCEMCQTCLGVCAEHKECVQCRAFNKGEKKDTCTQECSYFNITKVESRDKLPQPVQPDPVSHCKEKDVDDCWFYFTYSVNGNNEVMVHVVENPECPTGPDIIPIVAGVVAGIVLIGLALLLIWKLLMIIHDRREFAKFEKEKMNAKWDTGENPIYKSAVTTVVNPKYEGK

Sequence of α6β1 integrin on Expi293F cells, α6 R157A (chain, as listed by the source R157A, chain 1 of 2): as the sequence (chain, as listed by the source D153A, chain 1 of 2) above, with A153D, R157A counted along it
Sequence of α6β1 integrin on Expi293F cells, α6 R157A (P05556 21-798, chain 2 of 2): as the sequence (P05556 21-798, chain 2 of 2) above

B1: trimeric fusion protein PA-sfGFP-tLM511 (complex)
chain 1: ENVERWQGQYEGLRGQDLGQAVLDAGHSVSTLEKTLPQLLAKLSILENRGVHNASLALSASIGRVRELIAQARGAASKVKVPMKFNGRSGVQLRTPRDLADLAAYTALKFYLQGPEPEPGQGTEDRFVMYMGSRQATGDYMGVSLRDKKVHWVYQLGEAGPAVLSIDEDIGEQFAAVSLDRTLQFGHMSVTVERQMIQETKGDTVAPGAEGLLNLRPDDFVFYVGGYPSTFTPPPLLRFPGYRGCIEMDTLNEEVVSLYNFERTFQLDTAVDRPCARSKSTGDPWLTDGSYLDGTGFARISFDSQISTTKRFEQELRLVSYSGVLFFLKQQSQFLCLAVQEGSLVLLYDFGAGLKKAVPLQPPPPLTSASKAIQVFLLGGSRKRVLVRVERATVYSVEQDNDLELADAYYLGGVPPDQLPPSLRRLFPTGGSVRGCVKGIKALGKYVDLKRLNTTGVSAGCTADLLVGRAMTFHGHGFLRLALSNVAPLTGNVYSGFGFHSAQDSALLYYRASPDGLCQVSLQQGRVSLQLLRTEVKTQAGFADGAPHYVAFYSNATGVWLYVDDQLQQMKPHRGPPPELQPQPEGPPRLLLGGLPESGTIYNFSGCISNVFVQRLLGPQRVFDLQQNLGSVNVSTGCAPALQAQTPGLGPRGLQATARKASRRSRQPARHPA
chain 2: not shown
chain 3: DTVDLNKLNEIEGTLNKAKDEMKVSDLDRKVSDLENEAKKQEAAIMDYNRDIEEIMKDIRNLEDIRKTLPSGCFNTPSIEKP
notes: laminin α5 chain (tLMα5), human, residues E2655-A3327, numbered from the initiation Met; sfGFP inserted between the PA tag and tLMα5; laminin β1 chain (tLMβ1), human, residues D1714-L1786, numbered from the initiation Met; laminin γ1 chain (tLMγ1), human, residues D1528-P1609, numbered from the initiation Met; sfGFP gene: GenBank ASL68970.1; also called sfGFP-fused tLM511; fluorescent tLM511 …
Take B1: the “fold increase in KD over the wild type” value in assay [1] is 2.3 fold; in assay [2], 3.6 fold.

Source of the values: publication PMC8241838, “Structural mechanism of laminin recognition by integrin” (Nature Communications, 2021).
